Blank lines part the entries; values can stand above or below the binder they belong to.
Tests used:
PD1-His [1] = target: T1, PD1-His (human, UniProt Q15116 25-167, limits assumed); assay: ELISA, PD1-His coated; ELISA, PD1-His on the plate
T1 construct: also called hPD-1; not shown: His tag
Method: Lay PD1-His on the plate, add gradient diluted antibody, incubate and wash it, and then add goat anti-mouse-HRP, perform coloration, and draw up the reaction curve by fitting of readings (see FIG. 6 for results) to calculate the EC50 value.

[2] = target: T2, PD-1 antigen of the Biacore experiment (not given) (UniProt Q15116 25-167, limits assumed); assay: SPR (Biacore), antibody captured by goat anti-human IgG on CM5 chip
T2 construct: Embodiment 5 describes capture by goat anti-human IgG on the chip but never names the analyte
T2 sequence (Q15116 25-167 limits assumed): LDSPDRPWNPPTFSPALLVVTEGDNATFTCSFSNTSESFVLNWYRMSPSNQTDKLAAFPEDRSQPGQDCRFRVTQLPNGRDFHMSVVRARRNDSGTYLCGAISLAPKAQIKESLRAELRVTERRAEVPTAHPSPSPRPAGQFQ
Text: Biacore is used to analyze the affinity and binding kinetics of the antibody expressed in cell line 4. Using standard amine coupling chemistry and the kit provided by Biacore, the goat anti-human IgG is covalently linked to CMS chip by primary amine. Make the antibody flow in the HBS EP buffer at a flow rate of […] and measure the binding. The binding time is 300 seconds, and the dissociation time is 7200 seconds.

mouse pd1 = target: T3, mouse pd1 (mouse, UniProt Q02242); assay: ELISA: protein coated at 0.5 ug/mL, antibody at 0.5 ug/mL, goat anti-human FAB-HRP, OD450
T3 construct: recombinant protein coated on the ELISA plate; also called recombinant mouse PD-1
T3 sequence (receptor, looked up): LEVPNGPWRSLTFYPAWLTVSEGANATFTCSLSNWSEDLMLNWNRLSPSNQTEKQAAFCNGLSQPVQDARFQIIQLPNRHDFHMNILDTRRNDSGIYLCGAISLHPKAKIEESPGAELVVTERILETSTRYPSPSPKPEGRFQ
Method: (§1) The binding of recombinant human CD28, recombinant human CTLA-4, recombinant mouse PD-1, recombinant M.fascicularis PD-1 and recombinant human PD-1 protein in recombinant CD28 family to antibodies is tested. Different proteins are stored at 0.5 μg/mL in enveloping buffer at 4° C. overnight. Remove the solution in wells the next day and wash with PBST for twice. Then add 1% BSA, seal at 37° C. for 1 hour, then wash with PBST for twice. Add 0.5 μg/mL antibody samples, incubate for 1 hour, and wash with PBST for three times. Dilute with goat anti-human FAB-HRP at ratio of 1:10000, incubate for 1 hour at 37 C, and wash with PBST for three times. Add TMB for 15 min coloration, stop the reaction with 0.5M H2SO4 and read out the absorbance at 450 nm.

recombinant human CD28 = target: T4, recombinant human CD28 (human, UniProt P10747 19-152, limits assumed); assay: as above
T4 construct: Plate-coated at 0.5 ug/mL in Embodiment 8
T4 sequence (P10747 19-152 limits assumed): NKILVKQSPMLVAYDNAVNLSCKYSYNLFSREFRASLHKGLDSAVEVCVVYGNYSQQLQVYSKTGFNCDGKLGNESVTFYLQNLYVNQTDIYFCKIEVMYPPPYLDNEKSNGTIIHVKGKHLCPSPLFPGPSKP
Method: as §1

recombinant human CTLA-4 = target: T5, recombinant human CTLA-4 (human, UniProt P16410 36-161, limits assumed); assay: as above
T5 construct: Plate-coated at 0.5 ug/mL in Embodiment 8
T5 sequence (looked up): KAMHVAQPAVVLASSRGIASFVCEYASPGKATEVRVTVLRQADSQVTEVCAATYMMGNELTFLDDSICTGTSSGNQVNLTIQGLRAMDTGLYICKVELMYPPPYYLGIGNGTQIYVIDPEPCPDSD
Method: as §1

[3] = target: Recombinant human PD-1 fusion protein (human); assay: ELISA: recombinant human PD-1 fusion protein coated at 0.5 ug/mL, antibody kept 1 day in monkey serum at 37 C, goat anti-human FAB-HRP, OD450
Chain of Recombinant human PD-1 fusion protein (human) (Q15116 25-170): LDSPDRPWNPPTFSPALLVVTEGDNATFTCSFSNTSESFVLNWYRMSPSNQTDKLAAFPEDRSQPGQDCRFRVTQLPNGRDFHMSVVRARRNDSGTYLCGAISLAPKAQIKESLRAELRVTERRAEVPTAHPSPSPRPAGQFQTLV

[4] = target: Recombinant human PD-1 fusion protein (human); assay: ELISA: recombinant human PD-1 fusion protein coated at 0.5 ug/mL, antibody kept 0 days in monkey serum at 37 C, goat anti-human FAB-HRP, OD450
[5] = target: Recombinant human PD-1 fusion protein (human); assay: ELISA: recombinant human PD-1 fusion protein coated at 0.5 ug/mL, antibody kept 4 days in monkey serum at 37 C, goat anti-human FAB-HRP, OD450
[6] = target: Recombinant human PD-1 fusion protein (human); assay: ELISA: recombinant human PD-1 fusion protein coated at 0.5 ug/mL, antibody kept 7 days in monkey serum at 37 C, goat anti-human FAB-HRP, OD450
PD1-Fc-His [7] = target: T6, PD1-Fc-His (UniProt Q15116 25-167, limits assumed); assay: Inhibition ELISA: graded antibody pre-incubated with PD1-Fc-His, added to a plate laid with 'PD1-Fc' (so in the source), anti-His-HRP, OD450
T6 construct: not shown: Fc; His tag
T6 sequence (Q15116 25-167 limits assumed): as the sequence (Q15116 25-167 limits assumed) above
Method: (§2) Incubate the gradient diluted antibody and a certain concentration of PD1-Fc-His in advance, then add the mixture to the plate laid with PD1-Fc. Add anti-His-HRP to the plate after incubating and washing. Then perform coloration. Draw up the reaction curve by fitting of readings (see FIG. 7 for results) to calculate the IC50 value.

PD1-Fc-His [8] = target: T6, PD1-Fc-His; assay: competition ELISA: antibody pre-incubated with PD1-Fc-His, plate coated with 'PD1-Fc' (competitor (so in the source)), anti-His-HRP; humanized-section antibody; ELISA competition, PD1-Fc-His in solution
Method: as §2

[9] = target: T7, PD1 on PD1-27 cells (PD1 over-expressed CHO-K1 stable transfected cells) (UniProt Q15116 25-288); assay: direct cell binding on PD1-27 CHO-K1 cells, EU fluorescence (heading 'Cell binding activity'; value printed as 'cell inhibitory activity IC50'); direct cell binding on PD1-27 cells, no competitor
T7 construct: whole, on cells
T7 sequence (Q15116 25-288 limits assumed): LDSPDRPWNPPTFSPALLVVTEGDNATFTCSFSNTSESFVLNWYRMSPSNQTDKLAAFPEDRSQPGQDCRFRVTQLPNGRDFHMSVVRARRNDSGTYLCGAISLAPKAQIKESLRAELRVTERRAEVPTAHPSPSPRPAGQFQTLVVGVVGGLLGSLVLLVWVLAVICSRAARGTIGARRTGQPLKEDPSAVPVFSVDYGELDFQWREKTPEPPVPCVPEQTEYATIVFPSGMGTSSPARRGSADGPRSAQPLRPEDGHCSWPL
Text: (§3) Lay PD1-27 (PD1 over-expressed CHO-K1 stable transfected cells) on the cell plate for culture inspection one day ahead of schedule. After closure on the next day, add gradient-diluted antibody, then anti-mouse-EU after washing, then fluorescence enhancement solution after washing, and obtain the readings.

PD1-His [10] = target: T1, PD1-His; assay: ELISA, PD1-His coated, goat anti-mouse-HRP
Method: Envelop PD1-His on the plate, add gradient diluted antibody, incubate and wash it, and then add goat anti-mouse-HRP, perform coloration, and draw up the reaction curve by fitting of readings (see FIG. 1 for results) to calculate the EC50 value.

[11] = target: T7, PD1 on PD1-27 cells (PD1 over-expressed …); assay: cell binding on PD1-27 CHO-K1 cells, anti-mouse-EU fluorescence
Text: as §3

PD1-Fc-His [12] = target: T6, PD1-Fc-His; assay: Inhibition ELISA: graded antibody pre-incubated with PD1-Fc-His, added to a plate coated with 'PD1-Fc' (so in the source), anti-His-HRP, OD450
Method: as §2, with “enveloped” for “laid”, “2” for “7”

[13] = target: T7, PD1 on PD1-27 cells (PD1 over-expressed …); assay: cell competition on PD1-27 CHO-K1 cells against 'PD1-Fc' (competitor (so in the source)), anti-Human-EU; mouse antibody; cell competition on PD1-27 CHO-K1 cells
Text: Lay PD1-27 (PD1 over-expressed CHO-K1 stable transfected cells) on the cell plate for culture inspection one day ahead of schedule. After closure on the next day, add gradient-diluted antibody and PD1-Fc, then anti-Human-EU after washing, and then fluorescence enhancement solution after washing.

PD1-Fc-His [14] = target: T6, PD1-Fc-His; assay: competition ELISA: antibody pre-incubated with PD1-Fc-His, plate coated with 'PD1-Fc' (competitor (so in the source)), anti-His-HRP; mouse antibody; ELISA competition, PD1-Fc-His in solution
Method: as §2, with “enveloped” for “laid”, “2” for “7”

T1 sequence (Q15116 25-167 limits assumed): as the sequence (Q15116 25-167 limits assumed) above

- EC50 (PD1-His [1]): 0.00609 mg/L
- Kd [2]: 0.422 nM
- koff [2]: 1.93e-05 s⁻¹
- kon [2]: 45700 M⁻¹ s⁻¹
- binding result (mouse pd1): no binding (tested: 0.5 ug/mL)
- binding result (recombinant human CD28): no binding (tested: 0.5 ug/mL)
- binding result (recombinant human CTLA-4): no binding (tested: 0.5 ug/mL)
- EC50 (read off the curve) [3]: 0.04 mg/L
- EC50 (read off the curve) [4]: 0.04 mg/L
- EC50 (read off the curve) [5]: 0.04 mg/L
- EC50 (read off the curve) [6]: 0.04 mg/L
- IC50 (read off the curve) (PD1-Fc-His [7]): ~0.4 mg/L
- IC50 (PD1-Fc-His [8]): 406 nM
- EC50 [9]: 0.103 mg/L
B1: humanized antibody anti-PD-1 (antibody, V domains shown)
VH: EVQLVESGGGLVKPGGSLRLSCAASGFTFSSYTMSWVRQAPGKGLEWVATISNGGSFTYYPDSMKGRFTISRDNSKNTLYLQMSSLRAEDTAVYYCARDSDYYGIFDYWGQGTTVTVSS
VL: DIVMTQSPLSLPVTPGEPASISCRSSKSLLYKDGKTYLNWYLQKPGQSPQLLIYLMSTRASGVPDRFSGSGSGTDFTLKISRVEAEDVGVYYCQQLVEDPFTFGQGTKLEIKR
notes: Human constant regions; also called humanized PD-1 antibody; hup01 (plasmids P3.1GS-hup01-HC / P3.1GS-hup01-LC)

- EC50 (PD1-His [10]): 0.0024 mg/L
- EC50 [11]: 0.0878 mg/L
- IC50 (read off the curve) (PD1-Fc-His [12]): ~0.004 mg/L
- IC50 [13]: 0.284 mg/L
- IC50 (PD1-Fc-His [14]): 3.83 nM
B2: mouse anti-PD-1 (antibody, V domains shown)
VH: DVKLVESGGGLVKPGGSLKLSCAASGFTFSSYTMSWVRQTPEKRLEWVATISNGGSFTYYPDSMKGRFTISRDNAKNTLYLQMSSLKSEDTAMYYCTRDSDYYGIFDYWGQGTTLTVSS
VL: DIVITQDELSNPVTSGESVSISCRSSKSLLYKDGKTYLNWFLQRPGQSPQLLIYLMSTRASGVSDRFSGSGSGTDFTLEISRVKAEDVGVYYCQQLVEDPFTFGSGTKLEIKR
notes: also called mouse anti-PD-1 monoclonal antibody; mouse PD-1 antibody

Source: patent publication US20190071501A1 (REYOUNG SUZHOU BIOLOGY SCIENCE AND TECHNOLOGY, published 2019)
